Data reported in patent US20240391997A1 (BRIGHTPATH BIOTHERAPEUTICS, published 2024).

Experiments:
[1] = biological target: T1, human Tim-3 expressed on cells (Jurkat cells stably expressing, Expi293 cells transiently expressing, … (human, UniProt Q8TDQ0 22-301)); test: flow cytometry on Jurkat cells stably expressing human Tim-3, KD from MFI curve
T1 construct: whole, on cells; One entry for all cell-surface forms; the cell type is named under assay; also called human Tim-3 expressed on the cell membrane

[2] = biological target: T1, human Tim-3 expressed on cells (Jurkat …); test: flow cytometry on Expi293 cells transiently expressing human Tim-3, KD from MFI curve
[3] = biological target: T2, biotinylated human Tim-3-Fc antigen (in-house preparation) (human, biotinylated); test: competition ELISA, biotinylated Tim-3-Fc premixed with antibody, binding to coated human Galectin-9
T2 construct: limits of the Tim-3 part not given

[4] = biological target: T2, biotinylated human Tim-3-Fc antigen …; test: as above; remark: listed apart in the source
[5] = biological target: T2, biotinylated human Tim-3-Fc antigen …; test: competition flow cytometry, biotinylated Tim-3-Fc premixed with antibody, binding to phosphatidylserine on apoptotic Jurkat cells (ligand not a protein)
[6] = biological target: T1, human Tim-3 expressed on cells (Jurkat …); test: flow cytometry on activated human CD4 T cells, KD from MFI curve
[7] = biological target: T1, human Tim-3 expressed on cells (Jurkat …); test: flow cytometry on activated human CD8 T cells, KD from MFI curve
[8] = biological target: T2, biotinylated human Tim-3-Fc antigen …; test: competition flow cytometry, biotinylated Tim-3-Fc premixed with antibody, binding to phosphatidylserine on apoptotic Jurkat cells (ligand not a protein); remark: listed apart in the source
[9] = biological target: T2, biotinylated human Tim-3-Fc antigen …; test: competition ELISA: biotinylated human Tim-3-Fc premixed with the antibody, added to plate-bound human Galectin-9 (blocked ligand); streptavidin-HRP; Binding (%)
[10] = biological target: T1, human Tim-3 expressed on cells (Jurkat …); test: flow cytometry on activated human CD4 T cells, KD from MFI curve; remark: listed apart in the source
[11] = biological target: T1, human Tim-3 expressed on cells (Jurkat …); test: flow cytometry on Jurkat cells stably expressing human Tim-3, KD from MFI curve; remark: listed apart in the source
[12] = biological target: T1, human Tim-3 expressed on cells (Jurkat …); test: flow cytometry on Expi293 cells transiently expressing human Tim-3, KD from MFI curve; remark: listed apart in the source
[13] = biological target: T2, biotinylated human Tim-3-Fc antigen …; test: competition ELISA, biotinylated Tim-3-Fc premixed with antibody, binding to coated human Galectin-9; remark: listed apart in the source
[14] = biological target: T2, biotinylated human Tim-3-Fc antigen …; test: competition flow cytometry, biotinylated Tim-3-Fc premixed with antibody, binding to phosphatidylserine on apoptotic Jurkat cells (ligand not a protein); remark: listed apart in the source
[15] = biological target: T1, human Tim-3 expressed on cells (Jurkat …); test: flow cytometry on activated human CD8 T cells, KD from MFI curve; remark: listed apart in the source

Row | Binder | Kd [1] [nM] | Kd [2] [nM] | inhibition of the binding between human Tim-3 and human Galectin-9 [3] [%] | IC50 [4] [nM] | IC50 [5] [nM] | Kd [6] [nM] | Kd [7] [nM] | IC50 [8] [nM] | IC50 (read off the curve) [9] [nM] | Kd [10] [nM] | Kd [11] [nM] | Kd [12] [nM] | IC50 [13] [nM] | IC50 [14] [nM] | Kd [15] [nM]
1 | Hu621003ct antibody (bispecific antibody, not shown: a dimerising Fc or GST) scFv 1: QVQLQESGGGLVKPGGSLKLSCAASGFTFSSYYMSWVRQTPDKRLEWVATISNSGGSTYYPDSVKDRFTISRDNAKNTLYLQMSSLKSEDTAMYYCARDPYYTNYVPMDYWGQGTMVTVSSGGGGSGGGGSGGGGSGGGGSDIVMTQSPSFLSASVGDRVTITCKASQYVDTYVAWYQQRPGKAPKPLIYSASTRHTGVPSRFSGSGSGTEFTLTISSLQPEDFATYFCAQYSSSPLTFGGGTKLELK scFv 2: QVQLVQSGAEVKKPGASVKVSCKASGYTFTDYYMDWVRQAPGQGLEWLGYIYPNKGGTSYNQKFKGRVTMTTDKSTSTAYMELRSLRSDDTAVYYCARSGYKAYYAMDYWGQGTTVTVSSGGGGSGGGGSGGGGSGGGGSDIVMTQSQKFMSTSVGDRVSITCKASQSVGNNVAWYQQKPGQSPKLLIYYASNRYTGVPDRFTGSGSGTDFTLTISNMQSEDLADYFCQQHYSSPYTFGGGTKLEIK | 0.283 | 2.27 | ≥ 90 | 0.819 | 32.3 |  |  |  |  |  |  |  |  |  | 
2 | Hu149003ct antibody (bispecific antibody, not shown: a dimerising Fc or GST) scFv 1: QVQLQESGGGLVKPGGSLKLSCAASGFTFSSYYMSWVRQTPDKRLEWVATISNSGGSTYYPDSVKDRFTISRDNAKNTLYLQMSSLKSEDTAMYYCARDPYYTNYVPMDYWGQGTMVTVSSGGGGSGGGGSGGGGSGGGGSDIVMTQSPSFLSASVGDRVTITCKASQYVDTYVAWYQQRPGKAPKPLIYSASTRHTGVPSRFSGSGSGTEFTLTISSLQPEDFATYFCAQYSSSPLTFGGGTKLELK scFv 2: QVQLVQSGAEVKKPGASVKVSCKASGYTFTDYYMDWVRQAPGQGLEWLGYIYPNKGGTSYNQKFKGRVTMTTDKSTSTAYMELRSLRSDDTAVYYCARSGYGNYYTMDYWGQGTTVTVSSGGGGSGGGGSGGGGSGGGGSDIVMTQSQKFMSTSVGDRVSITCKASQSVGNNVAWYQQKPGQSPKLLIYYASNRYTGVPDRFTGSGSGTDFTLTISNMQSEDLADYFCQQHYSSPSTFGGGTKLEIK | 0.904 | 4.16 | ≥ 90 | 1.12 | 32.3 | 0.917 | 0.97 |  |  |  |  |  |  |  | 
3 | Hu428003ct antibody (bispecific antibody, not shown: a dimerising Fc or GST) scFv 1: QVQLQESGGGLVKPGGSLKLSCAASGFTFSSYYMSWVRQTPDKRLEWVATISNSGGSTYYPDSVKDRFTISRDNAKNTLYLQMSSLKSEDTAMYYCARDPYYTNYVPMDYWGQGTMVTVSSGGGGSGGGGSGGGGSGGGGSDIVMTQSPSFLSASVGDRVTITCKASQYVDTYVAWYQQRPGKAPKPLIYSASTRHTGVPSRFSGSGSGTEFTLTISSLQPEDFATYFCAQYSSSPLTFGGGTKLELK scFv 2: QVQLVQSGAEVKKPGASVKVSCKASGYTFTDYYMDWVRQAPGQGLEWLGYIYPNKGGTSYNQKFKGRVTMTTDKSTSTAYMELRSLRSDDTAVYYCARGGYYSYYSYDYWGQGTTVTVSSGGGGSGGGGSGGGGSGGGGSDIVMTQSQKFMSTSVGDRVSITCKASQSVGNNVAWYQQKPGQSPKLLIYYASNRYTGVPDRFTGSGSGTDFTLTISNMQSEDLADYFCQQHYSSPYTFGGGTKLEIK | 0.232 | 2.3 | ≥ 90 | 0.712 | 27.3 | 0.279 | 0.263 |  |  |  |  |  |  |  | 
4 | Hu003_13_F20_LA antibody (antibody, V domains shown) VH: QVQLQESGGGLVKPGGSLKLSCAASGFTFSSYYMSWVRQTPDKRLEWVATISNSGGSTYYPDSVKDRFTISRDNAKNTLYLQMSSLKSEDTAMYYCARDPYYTNYVPMDYWGQGTMVTVSS VL: DIVMTQSPSFLSASVGDRVTITCKASQYVDTYVAWYQQRPGKAPKPLIYSASTRHTGVPSRFSGSGSGTEFTLTISSLQPEDFATYFCAQYSSSPLTFGGGTKLELK |  |  |  |  |  |  |  | 10.7 | ~0.5 |  |  |  |  |  | 
5 | Ch428003ct antibody (bispecific antibody, not shown: a dimerising Fc or GST) scFv 1: EVMLMESGGGLVKLGGSLKLSCAASGFTFSSYYMSWVRQTPEKRLEWVATISNSGGSIYYLDSVKDRFTISRDNAKNTLYLQMSSLNSEDTAVYYCARDPYYSNYVPMDYWGQGTSVTVSSGGGGSGGGGSGGGGSGGGGSSIVMTQTPKFMSTSVGDRVSVTCKASQYVDTYVAWYQQKPGQSPKPLIYSASTRHTGVPARFTGSGSGTDFTLTISNVQSEDLAEYFCAQYSSSPLTFGAGTKLELK scFv 2: QVQLQQSGPELVKPGDSVKMSCKASGYTFTDYYMDWVKQSHGKSLEWIGYIYPNNGGTSYNQKFKGKATLTVDKSSSTAYMELHSLTSEDSAVYYCARGGYYSYYSYDYWGQGTTLTVSSGGGGSGGGGSGGGGSGGGGSSIVMTQTPKFLPVSAGDRVTMTCKASQSVGNNVAWYQQKPGQSPKLLIYYASNRYTGVPDRFTGSGSGTDFTFTISSVQVEDLAVYFCQQHYSSPYTFGTGTKLEIK |  |  | ≥ 90 |  |  |  |  |  |  | 0.218 | 0.194 | 1.37 | 0.454 | 12.8 | 
6 | Ch621003ct antibody (bispecific antibody, not shown: a dimerising Fc or GST) scFv 1: EVMLMESGGGLVKLGGSLKLSCAASGFTFSSYYMSWVRQTPEKRLEWVATISNSGGSIYYLDSVKDRFTISRDNAKNTLYLQMSSLNSEDTAVYYCARDPYYSNYVPMDYWGQGTSVTVSSGGGGSGGGGSGGGGSGGGGSSIVMTQTPKFMSTSVGDRVSVTCKASQYVDTYVAWYQQKPGQSPKPLIYSASTRHTGVPARFTGSGSGTDFTLTISNVQSEDLAEYFCAQYSSSPLTFGAGTKLELK scFv 2: QIQLQQSGPELVKPGDSVKMSCKASGYTFTDYYMDWVKQSHGKSLEWIGYIYPNNGGTSYNQKFKGKATLTVDKSSSTAYMELHSLTSEDSAVYYCARSGYKAYYAMDYWGQGTTLTVSSGGGGSGGGGSGGGGSGGGGSSIVMTQTPKFLPVSAGDRVTMTCKASQSVGNNVAWYQQKPGQSPKLLIYYASNRYTGVPDRFTGSGSGTDFTFTISSVQVEDLAVYFCQQHYSSPYTFGSGTKLEIK |  |  | ≥ 90 |  |  |  |  |  |  | 0.287 | 0.256 | 1.82 | 0.751 | 16.3 | 0.308
7 | Ch149003ct antibody (bispecific antibody, not shown: a dimerising Fc or GST) scFv 1: EVMLMESGGGLVKLGGSLKLSCAASGFTFSSYYMSWVRQTPEKRLEWVATISNSGGSIYYLDSVKDRFTISRDNAKNTLYLQMSSLNSEDTAVYYCARDPYYSNYVPMDYWGQGTSVTVSSGGGGSGGGGSGGGGSGGGGSSIVMTQTPKFMSTSVGDRVSVTCKASQYVDTYVAWYQQKPGQSPKPLIYSASTRHTGVPARFTGSGSGTDFTLTISNVQSEDLAEYFCAQYSSSPLTFGAGTKLELK scFv 2: QVQLQQSGPERVKPGDSVKMSCKASGYTFTDYYMDWVKQSHGKSLEWIGYIYPNNGGTSYNQKFKGKATLTVDKSSSTAYMELHSLTSEDSAVYYCARSGYGNYYTMDYWGQGTSVTVSAGGGGSGGGGSGGGGSGGGGSSIVMTQTPKFMPVSAGDRVTMTCKASQSVGNNVAWYQQKPGQSPKLLIYYASNRYTGVPDRFTGSGSGTDFTFTISSVQVEDLAVYFCQQHYSSPSTFGTGTKLEIK |  |  | ≥ 90 |  |  |  |  |  |  | 0.508 | 0.404 | 2.17 | 0.589 | 22.9 | 0.558
